B1: target 1 C2G,G15C (mixed)
RNA 1: CACCCGUGCAAAAAUGCAGGGGUCUAAAACUGAGCGGAUAACCUCUCUAUGG
RNA 2: GGGAAUGGAUCCACAUCUACGAAUUCGUACCAUAGACAGGUUAUCCGCUGACCGAGAUCGGAAGAGCACACGU
B2: target 1 A1U,A14G (mixed)
RNA 1: CACCCGUGCAAAAAUGCAGGGGUCUAAAACUGAGCGGAUAACCUCUCUAUGG
RNA 2: GGGAAUGGAUCCACAUCUACGAAUUCGUACCAUAGAGGGGUUAUCCGCUCUCCGAGAUCGGAAGAGCACACGU
B3: target 2 MT 5'PFS AAU 3'PFS AGU (mixed)
RNA 1: CACCCGUGCAAAAUUGCAGGGGUCUAAAACCUUCUCCAAAUUGUUUCAUCCU
RNA 2: GGGAAUGGAUCCACAUCUACGAAUUCAAUAGGAUGAAACAAUUUGGAGAAGAGUAGAUCGGAAGAGCACACGU
B4: target 2 MT 5'PFS ACA 3'PFS UGA (mixed)
RNA 1: CACCCGUGCAAAAUUGCAGGGGUCUAAAACCUUCUCCAAAUUGUUUCAUCCU
RNA 2: GGGAAUGGAUCCACAUCUACGAAUUCACAAGGAUGAAACAAUUUGGAGAAGUGAAGAUCGGAAGAGCACACGU
B5: target 2 MT 5'PFS CUC 3'PFS UCU (mixed)
RNA 1: CACCCGUGCAAAAUUGCAGGGGUCUAAAACCUUCUCCAAAUUGUUUCAUCCU
RNA 2: GGGAAUGGAUCCACAUCUACGAAUUCCUCAGGAUGAAACAAUUUGGAGAAGUCUAGAUCGGAAGAGCACACGU
B6: target 2 MT 5'PFS AGU 3'PFS CGC (mixed)
RNA 1: CACCCGUGCAAAAUUGCAGGGGUCUAAAACCUUCUCCAAAUUGUUUCAUCCU
RNA 2: GGGAAUGGAUCCACAUCUACGAAUUCAGUAGGAUGAAACAAUUUGGAGAAGCGCAGAUCGGAAGAGCACACGU
B7: target 2 MT 5'PFS AGA 3'PFS CGG (mixed)
RNA 1: CACCCGUGCAAAAUUGCAGGGGUCUAAAACCUUCUCCAAAUUGUUUCAUCCU
RNA 2: GGGAAUGGAUCCACAUCUACGAAUUCAGAAGGAUGAAACAAUUUGGAGAAGCGGAGAUCGGAAGAGCACACGU
B8: target 2 MT 5'PFS CGG 3'PFS UCA (mixed)
RNA 1: CACCCGUGCAAAAUUGCAGGGGUCUAAAACCUUCUCCAAAUUGUUUCAUCCU
RNA 2: GGGAAUGGAUCCACAUCUACGAAUUCCGGAGGAUGAAACAAUUUGGAGAAGUCAAGAUCGGAAGAGCACACGU
B9: target 2 MT 5'PFS GUA 3'PFS CAU (mixed)
RNA 1: CACCCGUGCAAAAUUGCAGGGGUCUAAAACCUUCUCCAAAUUGUUUCAUCCU
RNA 2: GGGAAUGGAUCCACAUCUACGAAUUCGUAAGGAUGAAACAAUUUGGAGAAGCAUAGAUCGGAAGAGCACACGU
B10: target 2 MT 5'PFS AGU 3'PFS CGU (mixed)
RNA 1: CACCCGUGCAAAAUUGCAGGGGUCUAAAACCUUCUCCAAAUUGUUUCAUCCU
RNA 2: GGGAAUGGAUCCACAUCUACGAAUUCAGUAGGAUGAAACAAUUUGGAGAAGCGUAGAUCGGAAGAGCACACGU
B11: target 2 MT 5'PFS CUC 3'PFS UCC (mixed)
RNA 1: CACCCGUGCAAAAUUGCAGGGGUCUAAAACCUUCUCCAAAUUGUUUCAUCCU
RNA 2: GGGAAUGGAUCCACAUCUACGAAUUCCUCAGGAUGAAACAAUUUGGAGAAGUCCAGAUCGGAAGAGCACACGU
B12: target 2 MT 5'PFS AGC 3'PFS AAU (mixed)
RNA 1: CACCCGUGCAAAAUUGCAGGGGUCUAAAACCUUCUCCAAAUUGUUUCAUCCU
RNA 2: GGGAAUGGAUCCACAUCUACGAAUUCAGCAGGAUGAAACAAUUUGGAGAAGAAUAGAUCGGAAGAGCACACGU
B13: target 2 MT 5'PFS AGC 3'PFS UGU (mixed)
RNA 1: CACCCGUGCAAAAUUGCAGGGGUCUAAAACCUUCUCCAAAUUGUUUCAUCCU
RNA 2: GGGAAUGGAUCCACAUCUACGAAUUCAGCAGGAUGAAACAAUUUGGAGAAGUGUAGAUCGGAAGAGCACACGU
B14: target 2 MT 5'PFS AGA 3'PFS CGA (mixed)
RNA 1: CACCCGUGCAAAAUUGCAGGGGUCUAAAACCUUCUCCAAAUUGUUUCAUCCU
RNA 2: GGGAAUGGAUCCACAUCUACGAAUUCAGAAGGAUGAAACAAUUUGGAGAAGCGAAGAUCGGAAGAGCACACGU
B15: target 2 MT 5'PFS AGC 3'PFS AAA (mixed)
RNA 1: CACCCGUGCAAAAUUGCAGGGGUCUAAAACCUUCUCCAAAUUGUUUCAUCCU
RNA 2: GGGAAUGGAUCCACAUCUACGAAUUCAGCAGGAUGAAACAAUUUGGAGAAGAAAAGAUCGGAAGAGCACACGU
B16: target 2 MT 5'PFS GUU 3'PFS AAC (mixed)
RNA 1: CACCCGUGCAAAAUUGCAGGGGUCUAAAACCUUCUCCAAAUUGUUUCAUCCU
RNA 2: GGGAAUGGAUCCACAUCUACGAAUUCGUUAGGAUGAAACAAUUUGGAGAAGAACAGAUCGGAAGAGCACACGU
B17: target 2 MT 5'PFS CAA 3'PFS AUA (mixed)
RNA 1: CACCCGUGCAAAAUUGCAGGGGUCUAAAACCUUCUCCAAAUUGUUUCAUCCU
RNA 2: GGGAAUGGAUCCACAUCUACGAAUUCCAAAGGAUGAAACAAUUUGGAGAAGAUAAGAUCGGAAGAGCACACGU
B18: target 2 MT 5'PFS AGC 3'PFS AAC (mixed)
RNA 1: CACCCGUGCAAAAUUGCAGGGGUCUAAAACCUUCUCCAAAUUGUUUCAUCCU
RNA 2: GGGAAUGGAUCCACAUCUACGAAUUCAGCAGGAUGAAACAAUUUGGAGAAGAACAGAUCGGAAGAGCACACGU
B19: target 2 MT 5'PFS GUU 3'PFS AAA (mixed)
RNA 1: CACCCGUGCAAAAUUGCAGGGGUCUAAAACCUUCUCCAAAUUGUUUCAUCCU
RNA 2: GGGAAUGGAUCCACAUCUACGAAUUCGUUAGGAUGAAACAAUUUGGAGAAGAAAAGAUCGGAAGAGCACACGU
B20: target 2 MT 5'PFS AAU 3'PFS AGA (mixed)
RNA 1: CACCCGUGCAAAAUUGCAGGGGUCUAAAACCUUCUCCAAAUUGUUUCAUCCU
RNA 2: GGGAAUGGAUCCACAUCUACGAAUUCAAUAGGAUGAAACAAUUUGGAGAAGAGAAGAUCGGAAGAGCACACGU
B21: target 2 MT 5'PFS AGC 3'PFS UGC (mixed)
RNA 1: CACCCGUGCAAAAUUGCAGGGGUCUAAAACCUUCUCCAAAUUGUUUCAUCCU
RNA 2: GGGAAUGGAUCCACAUCUACGAAUUCAGCAGGAUGAAACAAUUUGGAGAAGUGCAGAUCGGAAGAGCACACGU
B22: target 2 MT 5'PFS AGC 3'PFS AAG (mixed)
RNA 1: CACCCGUGCAAAAUUGCAGGGGUCUAAAACCUUCUCCAAAUUGUUUCAUCCU
RNA 2: GGGAAUGGAUCCACAUCUACGAAUUCAGCAGGAUGAAACAAUUUGGAGAAGAAGAGAUCGGAAGAGCACACGU
B23: target 2 MT 5'PFS CAA 3'PFS AUC (mixed)
RNA 1: CACCCGUGCAAAAUUGCAGGGGUCUAAAACCUUCUCCAAAUUGUUUCAUCCU
RNA 2: GGGAAUGGAUCCACAUCUACGAAUUCCAAAGGAUGAAACAAUUUGGAGAAGAUCAGAUCGGAAGAGCACACGU
B24: target 2 MT 5'PFS AAG 3'PFS UCG (mixed)
RNA 1: CACCCGUGCAAAAUUGCAGGGGUCUAAAACCUUCUCCAAAUUGUUUCAUCCU
RNA 2: GGGAAUGGAUCCACAUCUACGAAUUCAAGAGGAUGAAACAAUUUGGAGAAGUCGAGAUCGGAAGAGCACACGU
B25: target 2 MT 5'PFS CUC 3'PFS UCA (mixed)
RNA 1: CACCCGUGCAAAAUUGCAGGGGUCUAAAACCUUCUCCAAAUUGUUUCAUCCU
RNA 2: GGGAAUGGAUCCACAUCUACGAAUUCCUCAGGAUGAAACAAUUUGGAGAAGUCAAGAUCGGAAGAGCACACGU
B26: target 2 MT 5'PFS GUU 3'PFS AAU (mixed)
RNA 1: CACCCGUGCAAAAUUGCAGGGGUCUAAAACCUUCUCCAAAUUGUUUCAUCCU
RNA 2: GGGAAUGGAUCCACAUCUACGAAUUCGUUAGGAUGAAACAAUUUGGAGAAGAAUAGAUCGGAAGAGCACACGU
B27: target 2 MT 5'PFS ACA 3'PFS UGU (mixed)
RNA 1: CACCCGUGCAAAAUUGCAGGGGUCUAAAACCUUCUCCAAAUUGUUUCAUCCU
RNA 2: GGGAAUGGAUCCACAUCUACGAAUUCACAAGGAUGAAACAAUUUGGAGAAGUGUAGAUCGGAAGAGCACACGU

The data set deals with T1, EsCas13d, nuclease-dead (Eubacterium siraeum, UniProt B0MS50, R295A;H300A;R849A;H854A).
T1 sequence: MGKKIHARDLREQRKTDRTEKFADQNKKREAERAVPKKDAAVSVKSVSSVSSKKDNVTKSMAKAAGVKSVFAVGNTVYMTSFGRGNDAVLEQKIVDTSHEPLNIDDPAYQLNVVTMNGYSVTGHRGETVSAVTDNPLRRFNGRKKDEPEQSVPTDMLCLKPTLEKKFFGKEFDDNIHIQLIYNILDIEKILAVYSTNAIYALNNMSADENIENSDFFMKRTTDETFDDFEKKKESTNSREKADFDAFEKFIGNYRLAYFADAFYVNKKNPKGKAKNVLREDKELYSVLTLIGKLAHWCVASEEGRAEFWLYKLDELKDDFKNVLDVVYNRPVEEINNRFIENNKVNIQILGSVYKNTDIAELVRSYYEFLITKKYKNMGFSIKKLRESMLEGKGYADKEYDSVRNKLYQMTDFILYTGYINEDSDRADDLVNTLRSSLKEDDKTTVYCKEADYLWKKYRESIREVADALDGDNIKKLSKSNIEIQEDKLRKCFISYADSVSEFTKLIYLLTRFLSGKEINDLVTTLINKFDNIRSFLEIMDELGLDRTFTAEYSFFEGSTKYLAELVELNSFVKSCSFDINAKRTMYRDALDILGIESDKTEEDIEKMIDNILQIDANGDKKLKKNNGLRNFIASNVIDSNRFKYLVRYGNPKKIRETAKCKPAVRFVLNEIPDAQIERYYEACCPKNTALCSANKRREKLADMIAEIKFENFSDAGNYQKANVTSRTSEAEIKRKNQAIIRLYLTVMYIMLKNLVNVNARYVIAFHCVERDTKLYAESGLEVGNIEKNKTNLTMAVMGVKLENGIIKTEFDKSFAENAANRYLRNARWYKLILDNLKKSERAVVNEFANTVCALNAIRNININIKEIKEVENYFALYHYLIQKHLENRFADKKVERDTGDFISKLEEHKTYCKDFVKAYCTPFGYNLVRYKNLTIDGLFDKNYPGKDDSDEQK
The data set is described as follows: crRNA (strand 1, pre-loaded); Mg2+; 40 mM Tris-HCl pH 7.5, 150 mM NaCl, 6 mM MgCl2, 1 mM DTT, 0.1% Tween-20, 0.2 mg/ml BSA; 25 C; 10 min per concentration, then washed. Particulars: tags: His6-TwinStrep-SUMO cleaved; N-terminal SNAP kept (SNAP-Surface 488); label: 3' end held by stalled T7 RNA polymerase.
For orientation: Kd means the equilibrium constant for the complex coming apart. A higher Kd goes with a looser complex. The molecule B1 gave a Kd of 35.8 ± 3.1 nM. For B2, the Kd is 17 ± 1.3 nM. This Kd lies about 2.1-fold lower than the previous one. In turn, B3 had a Kd of 4.9 ± 0.5 nM. In turn, B4 came in with a Kd of 7 ± 1.5 nM. This Kd and that of the molecule before are within 1.5-fold of each other. For the molecule B5, the Kd worked out at 5 ± 0.6 nM. As for B6, the affinity, expressed as Kd, was 14.6 ± 1.9 nM. The result for B7 reads 5.2 ± 0.6 nM; that for B8, 11 ± 5 nM. On to B9, for which the Kd was determined as 6.3 ± 0.5 nM. Consider B10, for which the Kd was 13.9 ± 2.3 nM. For the molecule B11, the equilibrium dissociation constant (Kd) worked out at 5.3 ± 0.9 nM. For the molecule B12, the Kd amounted to 7.1 ± 1.4 nM. With B13, the Kd is 12.7 ± 1.8 nM. Against the preceding molecule, the Kd is about 1.8-fold higher. Turning to B14, the Kd turned out to be 5.5 ± 0.8 nM. In turn, B15 returned a dissociation constant Kd of 13 ± 4 nM.

With B16, binding was put at a Kd of 11.9 ± 1.3 nM. B17 came in with a Kd of 5.5 ± 1.8 nM.

B18 came in with a Kd of 13 ± 4 nM. Regarding B19, binding was characterised by a dissociation constant (Kd) of 14 ± 7 nM. Molecule B20 came in with a dissociation constant (Kd) of 3.3 ± 0.5 nM.

As to B21, binding was characterised by a dissociation constant (Kd) of 8.2 ± 1.4 nM.

Consider B22, for which binding was put at a Kd of 9.2 ± 2 nM. The result for B23 reads 2.4 ± 1.1 nM; that for B24, 4.4 ± 0.7 nM. Take B25: the Kd was determined as 3.3 ± 0.5 nM. Turning to B26, the Kd amounted to 7.5 ± 0.6 nM. To B27 belongs 9.6 ± 2.5 nM.

The record behind these values is paper PMC10786891, “Massively parallel profiling of RNA-targeting CRISPR-Cas13d”.
